Assay results: PMC6613838 (Autophagy, 2019)

B1: GST-UVRAG FL (natural protein)
chain: MSASASVGGPVPQPPPGPAAALPPGSAARALHVELPSQQRRLRHLRNIAARNIVNRNGHQLLDTYFTLHLCSTEKIYKEFYRSEVIKNSLNPTWRSLDFGIMPDRLDTSVSCFVVKIWGGKENIYQLLIEWKVCLDGLKYLGQQIHARNQNEIIFGLNDGYYGAPFEHKGYSNAQKTILLQVDQNCVRNSYDVFSLLRLHRAQCAIKQTQVTVQKIGKEIEEKLRLTSTSNELKKKSECLQLKILVLQNELERQKKALGREVALLHKQQIALQDKGSAFSAEHLKLQLQKESLNELRKECTAKRELFLKTNAQLTIRCRQLLSELSYIYPIDLNEHKDYFVCGVKLPNSEDFQAKDDGSIAVALGYTAHLVSMISFFLQVPLRYPIIHKGSRSTIKDNINDKLTEKEREFPLYPKGGEKLQFDYGVYLLNKNIAQLRYQHGLGTPDLRQTLPNLKNFMEHGLMVRCDRHHTSSAIPVPKRQSSIFGGADVGFSGGIPSPDKGHRKRASSENERLQYKTPPPSYNSALAQPVTTVPSMGETERKITSLSSSLDTSLDFSKENKKKGEDLVGSLNGGHANVHPSQEQGEALSGHRATVNGTLLPSEQAGSASVQLPGEFHPVSEAELCCTVEQAEEIIGLEATGFASGDQLEAFNCIPVDSAVAVECDEQVLGEFEEFSRRIYALNENVSSFRRPRRSSDK
B2: GST-UVRAG C-terminal fragment (501–699 aa) (domain or fragment)
chain: KGHRKRASSENERLQYKTPPPSYNSALAQPVTTVPSMGETERKITSLSSSLDTSLDFSKENKKKGEDLVGSLNGGHANVHPSQEQGEALSGHRATVNGTLLPSEQAGSASVQLPGEFHPVSEAELCCTVEQAEEIIGLEATGFASGDQLEAFNCIPVDSAVAVECDEQVLGEFEEFSRRIYALNENVSSFRRPRRSSDK
B3: His-CSNK1A1 (enzyme)
chain: MASSSGSKAEFIVGGKYKLVRKIGSGSFGDIYLAINITNGEEVAVKLESQKARHPQLLYESKLYKILQGGVGIPHIRWYGQEKDYNVLVMDLLGPSLEDLFNFCSRRFTMKTVLMLADQMISRIEYVHTKNFIHRDIKPDNFLMGIGRHCNKLFLIDFGLAKKYRDNRTRQHIPYREDKNLTGTARYASINAHLGIEQSRRDDMESLGYVLMYFNRTSLPWQGLKAATKKQKYEKISEKKMSTPVEVLCKGFPAEFAMYLNYCRGLRFEEAPDYMYLRQLFRILFRTLNHQYDYTFDWTMLKQKAAQQAASSSGQGQQAQTPTGKQTDKTKSNMKGF

Legend:
His-SMURF1 (E. coli) = His-SMURF1 (E. coli) (human, UniProt Q9HCE7-2 1-731); test: pull-down
GST-UVRAG FL = target: B1; test: pull-down

| Binder | binding result (His-SMURF1 (E. coli)) | binding result (GST-UVRAG FL) |
| --- | --- | --- |
| B1 | binds | – |
| B2 | binds | – |
| B3 | – | binds |
